Data published in PMC10656227.
Values belong to the substance of their own block, whether it stands above or below them.

Columns and labels:
[1] = target: collagen IV NC1 domains of the NC1 hexamer from rotifers (rotifer (Brachionus plicatilis)); assay: SDS-PAGE (SDS resistance of the native hexamer); partially purified NC1 hexamer (SEC hexamer fraction); SDS-PAGE with 150 mM NaCl; sample at room temperature; Western blot with JK2 or TCE in-gel visualization
[2] = target: collagen IV NC1 domains of the NC1 hexamer from rotifers (rotifer (Brachionus plicatilis)); assay: SDS-PAGE (SDS resistance of the native hexamer); partially purified NC1 hexamer (SEC hexamer fraction); regular SDS-PAGE without Cl^− supplement; sample at room temperature; Western blot with JK2 or TCE in-gel visualization
[3] = target: collagen IV NC1 domains of the NC1 hexamer from American lobster (American lobster (Homarus americanus)); assay: SDS-PAGE (SDS resistance of the native hexamer); straight collagenase digest of tissue or animals; SDS-PAGE with 150 mM NaCl; sample at room temperature; Western blot with JK2
[4] = target: collagen IV NC1 domains of the NC1 hexamer from American lobster (American lobster (Homarus americanus)); assay: SDS-PAGE (SDS resistance of the native hexamer); straight collagenase digest of tissue or animals; regular SDS-PAGE without Cl^− supplement; sample at room temperature; Western blot with JK2
[5] = target: collagen IV NC1 domains of the NC1 hexamer from starlet sea anemone (starlet sea anemone (Nematostella vectensis)); assay: SDS-PAGE (SDS resistance of the native hexamer); partially purified NC1 hexamer (SEC hexamer fraction); SDS-PAGE with 150 mM NaCl; sample at room temperature; Western blot with JK2 or TCE in-gel visualization
[6] = target: collagen IV NC1 domains of the NC1 hexamer from mouse kidney (mouse (Mus musculus)); assay: SDS-PAGE (SDS resistance of the native hexamer); straight collagenase digest of tissue or animals; SDS-PAGE with 150 mM NaCl; sample at room temperature; Western blot with JK2
[7] = target: collagen IV NC1 domains of the NC1 hexamer from brown planaria (brown planaria (Dugesia tigrina)); assay: SDS-PAGE (SDS resistance of the native hexamer); partially purified NC1 hexamer (SEC hexamer fraction); SDS-PAGE with 150 mM NaCl; sample at room temperature; Western blot with JK2 or TCE in-gel visualization
[8] = target: collagen IV NC1 domains of the NC1 hexamer from brown planaria (brown planaria (Dugesia tigrina)); assay: SDS-PAGE (SDS resistance of the native hexamer); partially purified NC1 hexamer (SEC hexamer fraction); regular SDS-PAGE without Cl^− supplement; sample at room temperature; Western blot with JK2 or TCE in-gel visualization
[9] = target: collagen IV NC1 domains of the NC1 hexamer from Caenorhabditis elegans (Caenorhabditis elegans); assay: SDS-PAGE (SDS resistance of the native hexamer); partially purified NC1 hexamer (SEC hexamer fraction); SDS-PAGE with 150 mM NaCl; sample at room temperature; Western blot with JK2 or TCE in-gel visualization
[10] = target: collagen IV NC1 domains of the NC1 hexamer from Caenorhabditis elegans (Caenorhabditis elegans); assay: SDS-PAGE (SDS resistance of the native hexamer); partially purified NC1 hexamer (SEC hexamer fraction); regular SDS-PAGE without Cl^− supplement; sample at room temperature; Western blot with JK2 or TCE in-gel visualization
[11] = target: collagen IV NC1 domains of the NC1 hexamer from comb jelly (comb jelly (Mnemiopsis leidyi)); assay: SDS-PAGE (SDS resistance of the native hexamer); partially purified NC1 hexamer (SEC hexamer fraction); SDS-PAGE with 150 mM NaCl; sample at room temperature; Western blot with JK2 or TCE in-gel visualization
[12] = target: collagen IV NC1 domains of the NC1 hexamer from comb jelly (comb jelly (Mnemiopsis leidyi)); assay: SDS-PAGE (SDS resistance of the native hexamer); partially purified NC1 hexamer (SEC hexamer fraction); regular SDS-PAGE without Cl^− supplement; sample at room temperature; Western blot with JK2 or TCE in-gel visualization
[13] = target: collagen IV NC1 domains of the NC1 hexamer from brine shrimp (brine shrimp (Artemia salina)); assay: SDS-PAGE (SDS resistance of the native hexamer); straight collagenase digest of tissue or animals; SDS-PAGE with 150 mM NaCl; sample at room temperature; Western blot with JK2
[14] = target: collagen IV NC1 domains of the NC1 hexamer from brine shrimp (brine shrimp (Artemia salina)); assay: SDS-PAGE (SDS resistance of the native hexamer); straight collagenase digest of tissue or animals; regular SDS-PAGE without Cl^− supplement; sample at room temperature; Western blot with JK2
[15] = target: collagen IV NC1 domains of the NC1 hexamer from horseshoe crab flatworm (horseshoe crab flatworm (Bdelloura candida)); assay: SDS-PAGE (SDS resistance of the native hexamer); partially purified NC1 hexamer (SEC hexamer fraction); SDS-PAGE with 150 mM NaCl; sample at room temperature; Western blot with JK2 or TCE in-gel visualization
[16] = target: collagen IV NC1 domains of the NC1 hexamer from moon jellyfish (moon jellyfish (Aurelia aurita)); assay: as above
[17] = target: collagen IV NC1 domains of the NC1 hexamer from marmoset kidney (common marmoset (Callithrix jacchus)); assay: as above
[18] = target: collagen IV NC1 domains of the NC1 hexamer from fruit fly (fruit fly (Drosophila melanogaster)); assay: SDS-PAGE (SDS resistance of the native hexamer); purified NC1 hexamer; regular SDS-PAGE without Cl^− supplement; sample at room temperature, not boiled; Coomassie, TCE or Western blot
[19] = target: collagen IV NC1 domains of the NC1 hexamer from fruit fly (fruit fly (Drosophila melanogaster)); assay: SDS-PAGE (SDS resistance of the native hexamer); purified NC1 hexamer; Tris-glycine SDS-PAGE with 150 mM NaCl in running buffer and sample buffer; sample at room temperature, not boiled; Coomassie, TCE or Western blot
[20] = target: collagen IV NC1 domains of the NC1 hexamer from cicada (cicada (Magicicada spp)); assay: SDS-PAGE (SDS resistance of the native hexamer); straight collagenase digest of tissue or animals; SDS-PAGE with 150 mM NaCl; sample at room temperature; Western blot with JK2
[21] = target: collagen IV NC1 domains of the NC1 hexamer from cicada (cicada (Magicicada spp)); assay: SDS-PAGE (SDS resistance of the native hexamer); straight collagenase digest of tissue or animals; regular SDS-PAGE without Cl^− supplement; sample at room temperature; Western blot with JK2
[22] = target: collagen IV NC1 domains of the NC1 hexamer from condylactis anemone (condylactis anemone (Condylactis gigantea)); assay: SDS-PAGE (SDS resistance of the native hexamer); partially purified NC1 hexamer (SEC hexamer fraction); SDS-PAGE with 150 mM NaCl; sample at room temperature; Western blot with JK2 or TCE in-gel visualization
[23] = target: collagen IV NC1 domains of the NC1 hexamer from Ascaris suum (Ascaris suum); assay: SDS-PAGE (SDS resistance of the native hexamer); purified NC1 hexamer; regular SDS-PAGE without Cl^− supplement; sample at room temperature, not boiled; Coomassie, TCE or Western blot
[24] = target: collagen IV NC1 domains of the NC1 hexamer from Ascaris suum (Ascaris suum); assay: SDS-PAGE (SDS resistance of the native hexamer); purified NC1 hexamer; Tris-glycine SDS-PAGE with 150 mM NaCl in running buffer and sample buffer; sample at room temperature, not boiled; Coomassie, TCE or Western blot

stoichiometry N [3]: 6
stoichiometry N [4]: 6
Substance: collagen IV NC1 domains of the NC1 hexamer from American lobster (domain or fragment)

stoichiometry N [5]: 6
Substance: collagen IV NC1 domains of the NC1 hexamer from starlet sea anemone (domain or fragment)

stoichiometry N [7]: 6
stoichiometry N [8]: 6
Substance: collagen IV NC1 domains of the NC1 hexamer from brown planaria (domain or fragment)

stoichiometry N [11]: 6
stoichiometry N [12]: 6
Substance: collagen IV NC1 domains of the NC1 hexamer from comb jelly (domain or fragment)

stoichiometry N [16]: 6
Substance: collagen IV NC1 domains of the NC1 hexamer from moon jellyfish (domain or fragment)

Further lines, the substance ahead of its results:

Substance: collagen IV NC1 domains of the NC1 hexamer from rotifers (domain or fragment)
stoichiometry N [1]: 6
stoichiometry N [2]: 6

Substance: collagen IV NC1 domains of the NC1 hexamer from mouse kidney (domain or fragment)
stoichiometry N [6]: 6

Substance: collagen IV NC1 domains of the NC1 hexamer from Caenorhabditis elegans (domain or fragment)
stoichiometry N [9]: 6
stoichiometry N [10]: 6

Substance: collagen IV NC1 domains of the NC1 hexamer from brine shrimp (domain or fragment)
stoichiometry N [13]: 6
stoichiometry N [14]: 6

Substance: collagen IV NC1 domains of the NC1 hexamer from horseshoe crab flatworm (domain or fragment)
stoichiometry N [15]: 6

Substance: collagen IV NC1 domains of the NC1 hexamer from marmoset kidney (domain or fragment)
stoichiometry N [17]: 6

Substance: collagen IV NC1 domains of the NC1 hexamer from fruit fly (domain or fragment)
stoichiometry N [18]: 6
stoichiometry N [19]: 6

Substance: collagen IV NC1 domains of the NC1 hexamer from cicada (domain or fragment)
stoichiometry N [20]: 6
stoichiometry N [21]: 6

Substance: collagen IV NC1 domains of the NC1 hexamer from condylactis anemone (domain or fragment)
stoichiometry N [22]: 6

Substance: collagen IV NC1 domains of the NC1 hexamer from Ascaris suum (domain or fragment)
stoichiometry N [23]: 6
stoichiometry N [24]: 6
